Measurements from IntAct's records for PubMed 22587461.

B1: Translocated intimin receptor Tir (Escherichia coli O127:H6 (strain E2348/69 / EPEC)), B7UM99 (parent)
chain: MPIGNLGNNVNGNHLIPPAPPLPSQTDGAARGGTGHLISSTGALGSRSLFSPLRNSMADSVDSRDIPGLPTNPSRLAAATSETCLLGGFEVLHDKGPLDILNTQIGPSAFRVEVQADGTHAAIGEKNGLEVSVTLSPQEWSSLQSIDTEGKNRFVFTGGRGGSGHPMVTVASDIAEARTKILAKLDPDNHGGRQPKDVDTRSVGVGSASGIDDGVVSETHTSTTNSSVRSDPKFWVSVGAIAAGLAGLAATGIAQALALTPEPDDPTTTDPDQAANAAESATKDQLTQEAFKNPENQKVNIDANGNAIPSGELKDDIVEQIAQQAKEAGEVARQQAVESNAQAQQRYEDQHARRQEELQLSSGIGYGLSSALIVAGGIGAGVTTALHRRNQPAEQTTTTTTHTVVQQQTGGNTPAQGGTDATRAEDASLNRRDSQGSVASTHWSDSSSEVVNPYAEVGGARNSLSAHQPEEHIYDEVAADPGYSVIQNFSGSGPVTGRLIGTPGQGIQSTYALLANSGGLRLGMGGLTSGGESAVSSVNAAPTPGPVRFV

Variants of: B1
Details: with anxa2_human ANXA2, P07355
anxa2_human ANXA2, P07355, sequence (P07355 whole entry): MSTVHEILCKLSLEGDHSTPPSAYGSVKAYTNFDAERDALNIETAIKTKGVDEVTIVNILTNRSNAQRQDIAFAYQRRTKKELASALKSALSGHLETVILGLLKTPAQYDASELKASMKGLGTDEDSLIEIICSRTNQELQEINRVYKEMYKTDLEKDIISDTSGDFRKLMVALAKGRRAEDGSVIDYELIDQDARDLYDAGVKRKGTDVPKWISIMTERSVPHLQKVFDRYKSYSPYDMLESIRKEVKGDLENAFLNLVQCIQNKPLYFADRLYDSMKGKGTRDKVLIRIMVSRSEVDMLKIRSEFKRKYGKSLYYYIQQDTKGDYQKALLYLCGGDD

| Variant | effect of a mutation on the interaction |
| --- | --- |
| Y474S | with no effect |
